From article PMC6398471, “The depolymerase activity of MCAK shows a graded response to Aurora B kinase phosphorylation through allosteric regulation” (Journal of Cell Science, 2019)
Where a chain is given by its changes, count along the chain named.

Key:
[1] = target: Taxol-stabilized microtubules, digoxigenin- and HyLite-647-labeled, P02550;P02554; assay: single-molecule imaging of MCAK-GFP on microtubules; conditions: 32 mM K-PIPES, parent: 6.14e-6
[2] = target: the molecule itself; assay: cross-linking; BS3 on MCAK alone: 10 µg MCAK with 20 µg BS3 in 10 mM HEPES pH 7, 200 mM potassium acetate pH 7.6, on ice 1 h; SDS-PAGE, band cut out, mass spectrometry
[3] = target: Taxol-stabilized microtubules, digoxigenin- and HyLite-647-labeled (UniProt P02550 1-451; P02554 1-445, 8% of the tubulin digoxigenin-labeled, 3.5% labeled with HyLite-647; chain and residues not stated | 8% of the tubulin digoxigenin-labeled, 3.5% labeled with HyLite-647; chain and residues not stated); assay: single-molecule TIRF microscopy (residence times); microtubules held on the coverslip by anti-DIG antibody; MCAK at 5-100 pM in MRB80 (80 mM K-PIPES pH 6.9, 1 mM EGTA, 4 mM MgCl2) with 1 mM ATP, κ-casein, 40 µM taxol; 23°C; off-rate = 1/τ of a single exponential fit; conditions: both partners purified
Sequence of Taxol-stabilized microtubules, digoxigenin- and HyLite-647-labeled (P02550 whole entry, chain 1 of 2): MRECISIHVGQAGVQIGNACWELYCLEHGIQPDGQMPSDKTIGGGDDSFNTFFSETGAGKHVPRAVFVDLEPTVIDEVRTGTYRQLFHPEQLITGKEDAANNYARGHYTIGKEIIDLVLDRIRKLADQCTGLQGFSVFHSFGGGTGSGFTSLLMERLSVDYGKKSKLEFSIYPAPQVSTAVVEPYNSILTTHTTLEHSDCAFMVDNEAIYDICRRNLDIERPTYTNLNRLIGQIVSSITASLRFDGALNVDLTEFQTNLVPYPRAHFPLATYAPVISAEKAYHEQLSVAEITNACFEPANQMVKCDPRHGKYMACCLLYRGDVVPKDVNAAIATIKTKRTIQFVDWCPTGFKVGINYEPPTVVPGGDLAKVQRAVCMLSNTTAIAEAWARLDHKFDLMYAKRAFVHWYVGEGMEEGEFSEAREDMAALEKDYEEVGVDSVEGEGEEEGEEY
Sequence of Taxol-stabilized microtubules, digoxigenin- and HyLite-647-labeled (P02554 whole entry, chain 2 of 2): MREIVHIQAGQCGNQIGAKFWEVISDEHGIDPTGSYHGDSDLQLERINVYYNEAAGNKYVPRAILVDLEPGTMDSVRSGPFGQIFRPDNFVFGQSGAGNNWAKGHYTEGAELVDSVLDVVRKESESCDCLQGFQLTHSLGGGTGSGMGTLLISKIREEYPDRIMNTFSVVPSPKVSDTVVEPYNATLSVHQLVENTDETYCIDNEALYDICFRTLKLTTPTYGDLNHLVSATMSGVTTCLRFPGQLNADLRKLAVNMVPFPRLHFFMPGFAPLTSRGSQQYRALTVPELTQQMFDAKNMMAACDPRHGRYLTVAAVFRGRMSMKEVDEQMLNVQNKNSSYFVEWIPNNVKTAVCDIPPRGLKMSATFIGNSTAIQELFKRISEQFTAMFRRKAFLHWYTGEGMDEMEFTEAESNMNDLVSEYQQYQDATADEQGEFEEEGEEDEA

“MCAK-GFP (from UniProt Q99661) S166E; S192E” gave a kon ([1]; n = 280) of 6720 M⁻¹ s⁻¹.

“MCAK-GFP (from UniProt Q99661) S95E; S109E; S111E; S115E; S166E; S192E” gave a kon ([1]; n = 439) of 11000 M⁻¹ s⁻¹.

B1: full-length human MCAK (natural protein, UniProt Q99661 1-725, looked up)
chain: MAMDSSLQARLFPGLAIKIQRSNGLIHSANVRTVNLEKSCVSVEWAEGGATKGKEIDFDDVAAINPELLQLLPLHPKDNLPLQENVTIQKQKRRSVNSKIPAPKESLRSRSTRMSTVSELRITAQENDMEVELPAAANSRKQFSVPPAPTRPSCPAVAEIPLRMVSEEMEEQVHSIRGSSSANPVNSVRRKSCLVKEVEKMKNKREEKKAQNSEMRMKRAQEYDSSFPNWEFARMIKEFRATLECHPLTMTDPIEEHRICVCVRKRPLNKQELAKKEIDVISIPSKCLLLVHEPKLKVDLTKYLENQAFCFDFAFDETASNEVVYRFTARPLVQTIFEGGKATCFAYGQTGSGKTHTMGGDLSGKAQNASKGIYAMASRDVFLLKNQPCYRKLGLEVYVTFFEIYNGKLFDLLNKKAKLRVLEDGKQQVQVVGLQEHLVNSADDVIKMIDMGSACRTSGQTFANSNSSRSHACFQIILRAKGRMHGKFSLVDLAGNERGADTSSADRQTRMEGAEINKSLLALKECIRALGQNKAHTPFRESKLTQVLRDSFIGENSRTCMIATISPGISSCEYTLNTLRYADRVKELSPHSGPSGEQLIQMETEEMEACSNGALIPGNLSKEEEELSSQMSSFNEAMTQIRELEEKAMEELKEIIQQGPDWLELSEMTEQPDYDLETFVNKAESALAQQAKHFSALRDVIKALRLAMQLEEQASRQISSKKRPQ
notes: MCAK (Kif2C), human, full length; also called Kif2C; kinesin-13; source: Sf9 insect cells (pFastBac), purified
With B1 the “stoichiometry N” value [2] was 2.

B2: MCAK-GFP (natural protein, human, UniProt Q99661 1-725, looked up)
chain: B1 chain
notes: MCAK (Kif2C), human, full length; also called GFP-tagged MCAK; source: Sf9 insect cells (pFastBac), purified; not shown: GFP, C-terminal, kept
For B2, the koff [3] was 1.6 s⁻¹.

B3: MCAKS2E-GFP (natural protein, human, UniProt Q99661 1-725, looked up)
chain: B1 chain with S166E, S192E
notes: MCAK (Kif2C), human, full length, phosphomimetic in the neck region (Ser192 and Ser166 replaced by glutamate); Site-directed mutagenesis of MCAK-GFP; source: Sf9 insect cells (pFastBac), purified; not shown: GFP, C-terminal, kept
Work on B3 yielded a koff [3] of 3.2 s⁻¹.

B4: MCAKS6E-GFP (natural protein, human, UniProt Q99661 1-725, looked up)
chain: B1 chain with S95E, S109E, S111E, S115E, S166E, S192E
notes: MCAK (Kif2C), human, full length, Aurora B phosphomimetic for six serines in the N-terminus and neck; Site-directed mutagenesis of MCAK-GFP; source: Sf9 insect cells (pFastBac), purified; not shown: GFP, C-terminal, kept
B4 showed a koff [3] of 25.8 s⁻¹.

B5: Aurora B-phosphorylated MCAK-GFP (natural protein, human, UniProt Q99661 1-725, looked up)
chain: B1 chain
modifications: phosphorylated in vitro with Aurora B kinase; the sites modified in this sample are not stated
notes: MCAK (Kif2C), human, full length; Phosphorylation protocol is in Welburn et al., 2010; source: Sf9 insect cells (pFastBac), purified, phosphorylated in vitro with Aurora B kinase; not shown: GFP, C-terminal, kept
In the case of B5, the koff [3] is reported as 23.4 s⁻¹.
